Measurements published in US20240409645A1 (DUALYX, published 2024).

T1: human IL-2 receptor (IL-2Rα/IL-2Rβ/γc) (human, UniProt P01589 22-272; P14784 27-551; P31785 23-369)
T1 sequence 1: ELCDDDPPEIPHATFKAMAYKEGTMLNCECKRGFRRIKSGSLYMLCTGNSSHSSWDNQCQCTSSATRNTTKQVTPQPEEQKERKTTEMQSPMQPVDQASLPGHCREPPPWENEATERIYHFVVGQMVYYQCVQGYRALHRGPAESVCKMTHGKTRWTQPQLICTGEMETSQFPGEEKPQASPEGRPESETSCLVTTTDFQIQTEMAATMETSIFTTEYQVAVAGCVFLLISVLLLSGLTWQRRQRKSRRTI
T1 sequence 2: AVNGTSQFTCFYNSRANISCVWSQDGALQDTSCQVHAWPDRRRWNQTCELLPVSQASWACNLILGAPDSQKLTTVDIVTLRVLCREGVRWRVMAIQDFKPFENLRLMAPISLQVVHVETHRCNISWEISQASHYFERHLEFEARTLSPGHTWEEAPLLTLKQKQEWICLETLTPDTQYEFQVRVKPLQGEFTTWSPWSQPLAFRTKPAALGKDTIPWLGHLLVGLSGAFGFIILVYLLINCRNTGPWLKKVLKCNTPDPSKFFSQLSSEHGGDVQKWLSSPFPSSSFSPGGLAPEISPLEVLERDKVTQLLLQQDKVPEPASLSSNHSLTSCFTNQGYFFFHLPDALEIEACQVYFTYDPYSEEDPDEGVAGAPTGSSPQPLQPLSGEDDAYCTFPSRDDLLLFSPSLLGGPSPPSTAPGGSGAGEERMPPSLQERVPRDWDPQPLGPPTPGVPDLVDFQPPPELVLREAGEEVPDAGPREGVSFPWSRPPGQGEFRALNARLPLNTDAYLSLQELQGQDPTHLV
T1 sequence 3: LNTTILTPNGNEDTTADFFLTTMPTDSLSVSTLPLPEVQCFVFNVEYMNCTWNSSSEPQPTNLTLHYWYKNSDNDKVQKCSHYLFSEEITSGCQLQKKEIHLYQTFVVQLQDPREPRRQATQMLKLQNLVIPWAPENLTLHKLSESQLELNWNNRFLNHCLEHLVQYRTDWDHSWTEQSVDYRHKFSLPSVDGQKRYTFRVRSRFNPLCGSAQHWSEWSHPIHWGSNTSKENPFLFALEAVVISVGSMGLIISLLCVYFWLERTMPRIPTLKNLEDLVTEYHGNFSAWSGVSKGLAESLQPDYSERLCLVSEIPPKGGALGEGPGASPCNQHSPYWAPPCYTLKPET

B1: DC00077 (other)
chain 1: QVQLVESGGGLVQAGGSLRLSCAASGIPFDNYAMGWFRQAPGKEREFVAARDLEGIITRYGDSVKGRFTISRGNAKNTVFLQMNSLKPEDTAVYYCAARDGGVVAGSRSSAQYNYWGQGTQVTVSSDKTHTCPPCPAPEAAGGPSVFLFPPKPKDTLMISRTPEVTCVVVDVSHEDPEVKFNWYVDGVEVHNAKTKPREEQYNSTYRVVSVLTVLHQDWLNGKEYKCKVSNKALGAPIEKTISKAKGQPREPQVYTLPPSRDELTKNQVSLTCLVKGFYPSDIAVEWESNGQPENNYKTTPPVLDSDGSFLLYSKLTVDKSRWQQGNVFSCSVMHEALHNHYTQKSLSLSPGK
chain 2: QVQLVESGGGLVQPGGSLRLSCATSGFTFRNNFMSWVRQAPGKGLEWVSTISYGGESTTYAESVKGRFTISRDNAKNTLYLQMNNLKPEDTAVYYCAKATSYDSIRSGSRGQGTQVTVSSGGGGSGGGGSGGGGSEVQLVESGGGLVQTGGSLRLSCAASGGTFSRDAMAWFRQVPGKEREFVALISWSGATTNYADSVKGRFAISRDNGKNTVYLQMNRLKPADTAIYYCAADRRPMGSRSYFEPTEYDDWGQGTQVTVSSGGGGSGGGGSGGGGSQVQLVESGGGLVQAGGSLTLSCAAPGRTFGTDVVGWFRQAPGKEREFVASISRSGDGIYYDDSVKGRFTISRNNAWNTVNLQMNSLKVEDTAVYYCAAGDGWSTYDYWGQGTQVTVSSGGGGSGGGGSGGGGSDKTHTCPPCPAPEAAGGPSVFLFPPKPKDTLMISRTPEVTCVVVDVSHEDPEVKFNWYVDGVEVHNAKTKPREEQYNSTYRVVSVLTVLHQDWLNGKEYKCKVSNKALGAPIEKTISKAKGQPREPQVYTLPPSRDELTKNQVSLTCLVKGFYPSDIAVEWESNGQPENNYKTTPPVLDSDGSFFLYSRLTVDKSRWQQGNVFSCSVMHEALHNHYTQKSLSLSPGK
B2: DC00078 (other)
chain 1: QVQLVESGGGLVQAGGSLRLSCAASGIPFDNYAMGWFRQAPGKEREFVAARDLEGIITRYGDSVKGRFTISRGNAKNTVFLQMNSLKPEDTAVYYCAARDGGVVAGSRSSAQYNYWGQGTQVTVSSDKTHTCPPCPAPEAAGGPSVFLFPPKPKDTLMISRTPEVTCVVVDVSHEDPEVKFNWYVDGVEVHNAKTKPREEQYNSTYRVVSVLTVLHQDWLNGKEYKCKVSNKALGAPIEKTISKAKGQPREPQVYTLPPSRDELTKNQVSLTCLVKGFYPSDIAVEWESNGQPENNYKTTPPVLDSDGSFLLYSKLTVDKSRWQQGNVFSCSVMHEALHNHYTQKSLSLSPGK
chain 2: QVQLVESGGGLVQAGGSLTLSCAAPGRTFGTDVVGWFRQAPGKEREFVASISRSGDGIYYDDSVKGRFTISRNNAWNTVNLQMNSLKVEDTAVYYCAAGDGWSTYDYWGQGTQVTVSSGGGGSGGGGSGGGGSEVQLVESGGGLVQTGGSLRLSCAASGGTFSRDAMAWFRQVPGKEREFVALISWSGATTNYADSVKGRFAISRDNGKNTVYLQMNRLKPADTAIYYCAADRRPMGSRSYFEPTEYDDWGQGTQVTVSSGGGGSGGGGSGGGGSQVQLVESGGGLVQPGGSLRLSCATSGFTFRNNFMSWVRQAPGKGLEWVSTISYGGESTTYAESVKGRFTISRDNAKNTLYLQMNNLKPEDTAVYYCAKATSYDSIRSGSRGQGTQVTVSSDKTHTCPPCPAPEAAGGPSVFLFPPKPKDTLMISRTPEVTCVVVDVSHEDPEVKFNWYVDGVEVHNAKTKPREEQYNSTYRVVSVLTVLHQDWLNGKEYKCKVSNKALGAPIEKTISKAKGQPREPQVYTLPPSRDELTKNQVSLTCLVKGFYPSDIAVEWESNGQPENNYKTTPPVLDSDGSFFLYSRLTVDKSRWQQGNVFSCSVMHEALHNHYTQKSLSLSPGK
B3: DC00079 (other)
chain 1: QVQLVESGGGLVQAGGSLRLSCAASGIPFDNYAMGWFRQAPGKEREFVAARDLEGIITRYGDSVKGRFTISRGNAKNTVFLQMNSLKPEDTAVYYCAARDGGVVAGSRSSAQYNYWGQGTQVTVSSDKTHTCPPCPAPEAAGGPSVFLFPPKPKDTLMISRTPEVTCVVVDVSHEDPEVKFNWYVDGVEVHNAKTKPREEQYNSTYRVVSVLTVLHQDWLNGKEYKCKVSNKALGAPIEKTISKAKGQPREPQVYTLPPSRDELTKNQVSLTCLVKGFYPSDIAVEWESNGQPENNYKTTPPVLDSDGSFLLYSKLTVDKSRWQQGNVFSCSVMHEALHNHYTQKSLSLSPGK
chain 2: QVQLVESGGGLVQAGGSLTLSCAAPGRTFGTDVVGWFRQAPGKEREFVASISRSGDGIYYDDSVKGRFTISRNNAWNTVNLQMNSLKVEDTAVYYCAAGDGWSTYDYWGQGTQVTVSSGGGGSGGGGSGGGGSQVQLVESGGGLVQPGGSLRLSCATSGFTFRNNFMSWVRQAPGKGLEWVSTISYGGESTTYAESVKGRFTISRDNAKNTLYLQMNNLKPEDTAVYYCAKATSYDSIRSGSRGQGTQVTVSSGGGGSGGGGSGGGGSEVQLVESGGGLVQTGGSLRLSCAASGGTFSRDAMAWFRQVPGKEREFVALISWSGATTNYADSVKGRFAISRDNGKNTVYLQMNRLKPADTAIYYCAADRRPMGSRSYFEPTEYDDWGQGTQVTVSSGGGGSGGGGSGGGGSDKTHTCPPCPAPEAAGGPSVFLFPPKPKDTLMISRTPEVTCVVVDVSHEDPEVKFNWYVDGVEVHNAKTKPREEQYNSTYRVVSVLTVLHQDWLNGKEYKCKVSNKALGAPIEKTISKAKGQPREPQVYTLPPSRDELTKNQVSLTCLVKGFYPSDIAVEWESNGQPENNYKTTPPVLDSDGSFFLYSRLTVDKSRWQQGNVFSCSVMHEALHNHYTQKSLSLSPGK
B4: DC00080 (other)
chain 1: QVQLVESGGGLVQAGGSLRLSCAASGGTFRTRNMGWFRRAPGKEREFVAAVSWNVDNKLYADSVKGRFTISRDNGRNMVYLQMNSLKPEDTAVYYCAADNIPLSSDMRPTATEYDYWGQGTQVTVSSDKTHTCPPCPAPEAAGGPSVFLFPPKPKDTLMISRTPEVTCVVVDVSHEDPEVKFNWYVDGVEVHNAKTKPREEQYNSTYRVVSVLTVLHQDWLNGKEYKCKVSNKALGAPIEKTISKAKGQPREPQVYTLPPSRDELTKNQVSLTCLVKGFYPSDIAVEWESNGQPENNYKTTPPVLDSDGSFLLYSKLTVDKSRWQQGNVFSCSVMHEALHNHYTQKSLSLSPGK
chain 2: EVQLVESGGGLVQTGGSLRLSCAASGGTFSRDAMAWFRQVPGKEREFVALISWSGATTNYADSVKGRFAISRDNGKNTVYLQMNRLKPADTAIYYCAADRRPMGSRSYFEPTEYDDWGQGTQVTVSSGGGGSGGGGSGGGGSQVQLVESGGGLVQPGGSLRLSCATSGFTFRNNFMSWVRQAPGKGLEWVSTISYGGESTTYAESVKGRFTISRDNAKNTLYLQMNNLKPEDTAVYYCAKATSYDSIRSGSRGQGTQVTVSSGGGGSGGGGSGGGGSQVQLVESGGGLVQAGGSLTLSCAAPGRTFGTDVVGWFRQAPGKEREFVASISRSGDGIYYDDSVKGRFTISRNNAWNTVNLQMNSLKVEDTAVYYCAAGDGWSTYDYWGQGTQVTVSSGGGGSGGGGSGGGGSDKTHTCPPCPAPEAAGGPSVFLFPPKPKDTLMISRTPEVTCVVVDVSHEDPEVKFNWYVDGVEVHNAKTKPREEQYNSTYRVVSVLTVLHQDWLNGKEYKCKVSNKALGAPIEKTISKAKGQPREPQVYTLPPSRDELTKNQVSLTCLVKGFYPSDIAVEWESNGQPENNYKTTPPVLDSDGSFFLYSRLTVDKSRWQQGNVFSCSVMHEALHNHYTQKSLSLSPGK

The binders below were run against T1, human IL-2 receptor (IL-2Rα/IL-2Rβ/γc) (assay: cell-based or functional assay).
With B1 the “EC50 (nM) pSTAT5, NK, human PBMCs” value was 0.191 pM, the “EC50 (nM) pSTAT5, Treg, human PBMCs” value was under 0.1 pM and the “Fold Max signal (% pSTAT5+) Treg/NK” value was 7 fold. For the same binder, the “Max signal (% pSTAT5+), NK” value was 7.96 % pSTAT5+, the “Max signal (% pSTAT5+), Treg” value was 58.4 % pSTAT5+ and the “fold EC50 NK/Treg” value was over 1.91 fold.
For B2, the “EC50 (nM) pSTAT5, NK, human PBMCs” value was 0.195 nM, the “EC50 (nM) pSTAT5, Treg, human PBMCs” value was under 0.1 pM and the “Fold Max signal (% pSTAT5+) Treg/NK” value was 5 fold. For the same binder, the “Max signal (% pSTAT5+), NK” value was 14.1 % pSTAT5+, the “Max signal (% pSTAT5+), Treg” value was 67.8 % pSTAT5+ and the “fold EC50 NK/Treg” value was over 1950 fold.
With B3 the “EC50 (nM) pSTAT5, NK, human PBMCs” value was 0.0993 nM, the “EC50 (nM) pSTAT5, Treg, human PBMCs” value was under 0.1 pM and the “Fold Max signal (% pSTAT5+) Treg/NK” value was 8 fold. For the same binder, the “Max signal (% pSTAT5+), NK” value was 7.35 % pSTAT5+, the “Max signal (% pSTAT5+), Treg” value was 62.4 % pSTAT5+ and the “fold EC50 NK/Treg” value was over 994 fold.
In the case of B4, the “EC50 (nM) pSTAT5, NK, human PBMCs” value is reported as 0.00648 nM, the “EC50 (nM) pSTAT5, Treg, human PBMCs” value is reported as under 0.1 pM and the “Fold Max signal (% pSTAT5+) Treg/NK” value is reported as 4 fold. The “Max signal (% pSTAT5+), NK” value was 4.42 % pSTAT5+, the “Max signal (% pSTAT5+), Treg” value was 17.8 % pSTAT5+ and the “fold EC50 NK/Treg” value was over 64.8 fold.
